Experimental data reported in patent US20250090583A1.

Tests used:
[1] = target: MART-1 peptide … (ELA) presented by HLA-A2 on peptide-pulsed T2 cells; assay: cell-based or functional assay
[2] = target: CD3 of the TCR-CD3 complex on human T cells (human) (UniProt P07766); assay: cell-based or functional assay

Substance	NFAT-GFP in Jurkat cells co-cultured overnight with ELA-pulsed T2 cells, against WT Jkt-DMF5 [1] [% reduction]	NFAT-GFP in Jkt-DMF5FATADALN cells co-cultured with Raji (CD19+) cells and blinatumomab, against WT Jkt-DMF5 [2] [% reduction]	NFAT-GFP in Jkt-DMF5GGGSGSG cells co-cultured with Raji (CD19+) cells and blinatumomab, against WT Jkt-DMF5 [2] [% reduction]
DMF5 TCR with alpha chain connecting peptide motif mutated to GGGSGSG	50	–	–
blinatumomab (bispecific antibody)	–	< 80	< 80
